Tests used:
[1] = target: T1, CcpA (Staphylococcus aureus COL) (UniProt Q5HF38); test: EMSA; conditions: Room temperature, 15 min, 250 fmol each of specific and non-specific probe; protein stock in 10 mM Tris-HCl pH 7.5, 100 mM NaCl, 10% glycerol (binding buffer …)
T1 sequence: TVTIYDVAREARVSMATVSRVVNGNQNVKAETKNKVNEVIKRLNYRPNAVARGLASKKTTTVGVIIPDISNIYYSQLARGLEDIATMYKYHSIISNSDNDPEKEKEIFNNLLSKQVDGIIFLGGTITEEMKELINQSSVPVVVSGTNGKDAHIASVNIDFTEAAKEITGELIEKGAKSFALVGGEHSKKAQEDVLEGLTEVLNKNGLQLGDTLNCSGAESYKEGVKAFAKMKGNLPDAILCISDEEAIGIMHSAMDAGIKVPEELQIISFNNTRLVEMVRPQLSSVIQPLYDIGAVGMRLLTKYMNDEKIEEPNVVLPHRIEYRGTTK

[2] = target: T2, Rex (Staphylococcus aureus COL) (UniProt Q5HEF5); test: EMSA; conditions: Room temperature, 15 min, 250 fmol each of specific and non-specific probe; protein stock in 10 mM Tris-HCl pH 7.5, 100 mM NaCl, 10% glycerol (binding buffer …)
T2 sequence: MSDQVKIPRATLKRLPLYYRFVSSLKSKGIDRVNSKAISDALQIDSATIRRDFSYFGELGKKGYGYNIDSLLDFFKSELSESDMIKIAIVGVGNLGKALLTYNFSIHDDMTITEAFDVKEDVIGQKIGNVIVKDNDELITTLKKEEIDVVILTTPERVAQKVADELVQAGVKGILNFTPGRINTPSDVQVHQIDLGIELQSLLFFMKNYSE

| Sequence | binding [1] | binding [2] |
| --- | --- | --- |
| CGCATAACTTAAAAGGTCATGTGTCATCCGCTTTTAAGTTTGTGATTTATTTCACATATAAAATGTAACATGCATTAAGTACTGGGTCAATATTAAATTGTGATTTATTTCACATTTTATTTTAATTTTTACACCTTTTTAATTTGTATACGATTACATCTTAGATGTCTTTAGTCTTCGTACTTCGCCAGTGATTATTTACAC (double strand) [Pldh1 promoter fragment] | no binding | binds |
| CTCCCCTTTTCATCATTTATAACTATTATACATGAAACATTATCCAAATAATTACATTAGTTTTCAAAGCAGATACTTTTCCACCAAAAAAGATGAAATAATCACTAAGTTTCATTAAATTTGTCTATTTTGAAAACCCTTACATTTATAATGACATAATTACTTAAATGATTACAAGCAAAAGAATTGATAATTTTACACTTAATC (double strand) [ProcD2 promoter fragment] | binds | – |

Reference: article PMC3544828
